US6544548B1, “Keratin-based powders and hydrogel for pharmaceutical applications” (Keraplast Technologies, Ltd., priority 1999, dated 2003)

Assays:
Format in all cases: physicochemical
[1] = Dissolution test (USP rotating paddle) of drug-loaded oxidized keratin tablets in simulated gastric fluid; conditions: 500 mg tablets of drug bound to H2O2-oxidized keratin, 37 C
Method: Dissolution tests are performed according to the standard United States Pharmacopoeia (USP) rotating paddle method. In this method, the volume of the dissolution medium is fixed and agitation is provided under defined conditions by the stainless steel paddle. A 1L volume of purified water or simulated gastric fluid (Lot. No. 76H9312, Sigma-Aldrich, St. Louis, Mo.) was used at 37° C.±0.5° C. The temperature of the dissolution medium was maintained at 37° C. by immersing the dissolution flask in a water bath. A cover was used on the system to avoid water loss through evaporation. […]
During the test, small volumes of sample were withdrawn at various time points, for example, every 20 minutes within the first hour (including a 0 time point) and every hour after that for 8 hours. […] High-performance liquid chromatography (HPLC) was performed on the samples and the amount released from the dosage form calculated based on a calibration curve generated from solutions with known concentrations of the compound of interest.
Tablet samples that incorporated the vasoconstrictor norephedrine were prepared by binding the drug to oxidized keratin in an ion exchange step. […] This was accomplished by dissolving a measured amount of norephedrine into ethanol, adding 5 g of oxidized keratin and heating to reflux for 2 hours, followed by stirring at room temperature for 24 hours. […]

[2] = Loading of acetaminophen into keratin tablets (tablet disintegrated in water, HPLC); conditions: acetaminophen bound to H2O2-oxidized keratin, 500 mg tablets
Method: Evaluation of the loading of acetaminophen was accomplished by disintegrating a single tablet into a known volume of water over a one week period at room temperature. In addition, that samples were sonicated for 90 minutes prior to sampling. A sample of the solution was withdrawn and analyzed by HPLC.

[3] = Dissolution test (USP rotating paddle) of albumin from keratin tablets and capsules
Method: Dissolution tests are performed according to the standard United States Pharmacopoeia (USP) rotating paddle method. In this method, the volume of the dissolution medium is fixed and agitation is provided under defined conditions by the stainless steel paddle. A 1L volume of purified water or simulated gastric fluid (Lot. No. 76H9312, Sigma-Aldrich, St. Louis, Mo.) was used at 37° C.±0.5° C. The temperature of the dissolution medium was maintained at 37° C. by immersing the dissolution flask in a water bath. A cover was used on the system to avoid water loss through evaporation. After the temperature equilibrated, the samples were allowed to sink to the bottom of the vessel before rotation of the paddle. Rotation speed was kept constant at 50 rpm.
During the test, small volumes of sample were withdrawn at various time points, for example, every 20 minutes within the first hour (including a 0 time point) and every hour after that for 8 hours. Samples were taken from a precise point in the dissolution flask, halfway between the surface of the dissolution medium and the top of the rotating paddle, and not less than 10 mm from the wall of the vessel. The volume withdrawn during sampling was replaced with an equal volume of media, pre-warmed to 37° C. High-performance liquid chromatography (HPLC) was performed on the samples and the amount released from the dosage form calculated based on a calibration curve generated from solutions with known concentrations of the compound of interest.
Samples containing albumin were made in tablet and capsule forms. Tablets were prepared by co-grinding a mixture of 80/20 dry keratin absorbent powder/bovine albumin. The keratin absorbent powder was prepared as described in Section VI. B supra, and the albumin was purchased from Sigma Chemical Co., St. Louis, Mo. (Lot No. 69H1257, Fraction V, 96% purity). The solid mixture was further homogenized by shaking in a closed container. Samples of 500 mg of the powder mixture were made into tablets using a pellet press at 30,000 psi (400 mg keratin, 100 mg albumin). The dissolution profile of these tablets was measured by the rotating paddle method.
Albumin capsules were prepared by dissolving 2 g of albumin in 200 g of deionized water. The albumin solution was added to 8 g of absorbent keratin powder to form a hydrogel. The hydrogel was thoroughly mixed and poured into petri dishes. The water was removed under vacuum at room temperature. After drying for approximately 36 hours, the resulting solid was ground using a mortar and pestle. 400 mg of the ground keratin/albumin powder (320 mg keratin/80 mg albumin) was placed into each of several two-part gelatin capsules (No. 0, Eli Lilly and Co., Indianapolis, Ind.). The dissolution profile of these tablets was measured using the rotating paddle method.

Compound | time over which bound drug is released [1] [h] | loading level in keratin tablets [2] | release of albumin, water versus gastric fluid, compared with tablets ([3]; gelatin capsules (320 mg keratin/80 mg albumin, intimately mixed via hydrogel)) | amount of albumin released over an equivalent time period, capsules versus tablets ([3]; gelatin capsules, intimately mixed via hydrogel) | disintegration and release of albumin ([3]; keratin tablets (400 mg keratin, 100 mg albumin, mechanically mixed), purified water, 37 C) | equilibrium amount of albumin released, gastric fluid versus water ([3]; keratin tablets, simulated gastric fluid) | release of albumin ([3]; keratin tablets, simulated gastric fluid, 37 C)
CC(=O)Nc1ccc(O)cc1 [acetaminophen, 4-Acetaminophenol] | 5 | low |  |  |  |  | 
CC(N)C(O)c1ccccc1 (centres unmarked) [norephedrine, Phenylpropanolamine] | 2 |  |  |  |  |  | 
albumin: bovine albumin (Sigma, Fraction V, 96% purity) formulated with keratin absorbent powder as tablets or gelatin capsules |  |  | identical trend | much less material was released | almost immediate and complete | significantly lower | immediate
